How the values were obtained:
HA-TAK1 = molecular target: T1, HA-TAK1 (UniProt Q62073 1-579, limits assumed); assay: coimmunoprecipitation from transfected 293 cells: IP anti-T7, immunoblot anti-HA
T1 construct: I recall the cited Yamaguchi 1995 clone as mouse TAK1 (Q62073); human TAK1 is O43318; also called HA-tagged TAK1 protein
T1 sequence (looked up): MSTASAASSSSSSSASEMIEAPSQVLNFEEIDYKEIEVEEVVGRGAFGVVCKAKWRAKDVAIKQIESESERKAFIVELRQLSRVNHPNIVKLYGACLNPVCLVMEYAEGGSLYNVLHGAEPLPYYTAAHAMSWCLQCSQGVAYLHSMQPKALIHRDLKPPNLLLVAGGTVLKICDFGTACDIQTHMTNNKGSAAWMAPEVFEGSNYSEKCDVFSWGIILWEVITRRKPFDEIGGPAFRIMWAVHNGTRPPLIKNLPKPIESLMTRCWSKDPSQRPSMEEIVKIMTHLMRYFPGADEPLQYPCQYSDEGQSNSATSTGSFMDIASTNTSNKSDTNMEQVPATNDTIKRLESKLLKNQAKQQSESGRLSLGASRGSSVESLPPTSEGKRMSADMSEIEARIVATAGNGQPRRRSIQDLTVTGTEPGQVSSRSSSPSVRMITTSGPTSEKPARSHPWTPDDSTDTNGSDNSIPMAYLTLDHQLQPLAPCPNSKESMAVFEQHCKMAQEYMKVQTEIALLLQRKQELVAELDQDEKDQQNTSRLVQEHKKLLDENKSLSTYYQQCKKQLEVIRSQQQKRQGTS
Protocol: 293 cells were transiently transfected with an expression vector for HA-TAK1 in combination with empty vector (−) or with expression vectors for T7-TAB2-Full length (Full), T7-TAB2C (C), or T7-TAB2N (N) as indicated. Cell extracts were immunoprecipitated (IP) with anti-T7 (7) or mouse IgG (C). Coprecipitated HA-TAK1 was detected by immunoblotting (IB) with anti-HA (upper panel, left). The amounts of immunoprecipitated T7-TAB2 proteins were determined with anti-T7 (lower panel). Whole cell extracts were immunoblotted with anti-HA to determine total amounts of HA-TAK1 (upper panel, right). Schematic representation of various TAB2 constructs is shown in the lower part. The coiled-coil regions are indicated by solid boxes.

Flag-TRAF6 = molecular target: T2, Flag-TRAF6 (UniProt Q9Y4K3 1-522); assay: coimmunoprecipitation from transfected 293 cells: IP anti-T7, immunoblot anti-Flag
T2 construct: The anti-TRAF6C peptide covers amino acids 497 to 522, which fits the 522-residue human protein; also called Flag-tagged TRAF6; 2Flag-TRAF6
T2 sequence (looked up): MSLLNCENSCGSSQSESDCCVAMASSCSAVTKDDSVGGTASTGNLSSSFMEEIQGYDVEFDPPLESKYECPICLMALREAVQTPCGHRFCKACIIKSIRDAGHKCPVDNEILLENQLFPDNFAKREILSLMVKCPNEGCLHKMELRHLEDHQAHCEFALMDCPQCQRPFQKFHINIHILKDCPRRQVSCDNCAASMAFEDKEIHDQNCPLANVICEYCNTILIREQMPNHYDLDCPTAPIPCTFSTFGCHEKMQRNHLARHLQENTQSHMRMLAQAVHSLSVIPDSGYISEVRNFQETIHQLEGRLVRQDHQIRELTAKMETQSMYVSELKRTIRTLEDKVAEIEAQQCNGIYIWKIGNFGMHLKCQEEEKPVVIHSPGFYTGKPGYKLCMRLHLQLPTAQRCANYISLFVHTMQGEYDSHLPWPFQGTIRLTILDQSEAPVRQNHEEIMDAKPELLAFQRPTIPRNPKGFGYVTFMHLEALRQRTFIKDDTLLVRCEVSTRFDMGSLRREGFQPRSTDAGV
Description: (A) show an association of TAB2 with […] in mammalian cells. 293 cells were transiently transfected with an expression vector for 2Flag-TRAF6 in combination with empty vector (−) or with expression vectors for T7-TAB2-Full length (Full) (Full), T7-TAB2C (C), or T7-TAB2N (N) as indicated. Cell extracts were immunoprecipitated (IP) with anti-T7 (7) or mouse IgG (C). Coprecipitated Flag-TRAF6 was detected by immunoblotting (IB) with anti-Flag (upper panel, left). The amounts of immunoprecipitated T7-TAB2 proteins were determined with anti-T7 (lower panel). Whole cell extracts were immunoblotted with anti-Flag to determine total amounts of Flag-TRAF6 (upper panel, right).
The present inventors therefore determined whether TAB2 could interact with TRAF6 (FIG. 3A). T7-TAB2 was coexpressed with Flag-tagged TRAF6 in 293 cells and immunoprecipitated with anti-T7 antibody. The immune complexes were subjected to immunoblotting with a monoclonal antibody to Flag. TAB2 efficiently precipitated with TRAF6 (lane 4). To determine which domain of TAB2 is responsible for its TRAF6 association, the inventors tested whether TAB2N or TAB2C is able to bind to TRAF6, using the same experimental procedure. […] Thus, the C-terminal domain of TAB2 is required for TRAF6 binding.

binding result (HA-TAK1): no binding
binding result (Flag-TRAF6): no binding
B1: T7-TAB2N (other)
chain: MASMTGGQQMGMAQGSHQIDFQVLHDLRQKFPEVPEVVVSRCMLQNNNNLDACCAVLSQESTRYLYGEGDLNFSDDSGISGLRNHMTSLNLDLQSQNIYHHGREGSRMNGSRTLTHSISDGQLQGGQSNSELFQQEPQTAPAQVPQGFNVFGMSSSSGASNSAPHLGFHLGSKGTSSLSQQTPRFNPIMVTLAPNIQTGRNTPTSLHIHGVPPPVLNSPQGNSIYIRPYITTPGGTTRQTQQHSGWVSQFNPMNPQQVYQPSQPGPWTTCPASNPLSHTSSQQPNQQGHQTSHVYMPISSPTTSQPPTIHSSGSSQSSAHSQYNIQNISTGPRKNQIEIKLEPPQRNNSSKLRSSGPRTSSTSSSVNSQTLNRNQPTVYIAASPPNTDELMSRSQPKVYISANAATGDEQV
notes: Expressed in 293 cells; also called N (1-400)
